We go through 1 substance from patent US20200317802A1.

Test [1] addresses activated human MMP-14 (human) (UniProt P50281).
In test [2] the target is activated human MMP-1 (human) (UniProt P03956).
activated human MMP-1 (human), sequence (P03956 100-469 limits assumed): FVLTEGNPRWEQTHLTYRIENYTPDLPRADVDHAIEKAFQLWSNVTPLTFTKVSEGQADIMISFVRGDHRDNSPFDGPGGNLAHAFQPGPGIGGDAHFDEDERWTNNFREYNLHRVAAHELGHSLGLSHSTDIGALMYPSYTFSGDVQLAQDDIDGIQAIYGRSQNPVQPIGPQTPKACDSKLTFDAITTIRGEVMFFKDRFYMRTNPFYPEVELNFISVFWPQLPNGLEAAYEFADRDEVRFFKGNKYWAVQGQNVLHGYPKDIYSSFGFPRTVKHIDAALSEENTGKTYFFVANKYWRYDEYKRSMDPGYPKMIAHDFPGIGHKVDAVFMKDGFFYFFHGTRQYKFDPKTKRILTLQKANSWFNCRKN

In test [1], TIMP2 (from UniProt P16035 27-220) returned an IC50 (read off the curve) (human MMP-14 activity, FRET peptide substrate) of 6 nM. The substance also came in with an IC50 (read off the curve) (human MMP-1 activity, FRET peptide substrate) in test [2] of 0.9 nM.
